Experiments:
[1] = target: T1, Recombinant Human CEACAM-5/CD66e Protein, CF (R & D SYSTEMS) (human, UniProt P06731 35-685); test: SPR, Biacore T200; CEACAM5 immobilized by amine coupling (279 RU), CEA-V2122 as analyte, single-cycle kinetics, bivalent analysis fit (KD = kd1/ka1)
T1 construct: Bought protein, immobilized on the sensor chip by amine coupling
T1 sequence (looked up): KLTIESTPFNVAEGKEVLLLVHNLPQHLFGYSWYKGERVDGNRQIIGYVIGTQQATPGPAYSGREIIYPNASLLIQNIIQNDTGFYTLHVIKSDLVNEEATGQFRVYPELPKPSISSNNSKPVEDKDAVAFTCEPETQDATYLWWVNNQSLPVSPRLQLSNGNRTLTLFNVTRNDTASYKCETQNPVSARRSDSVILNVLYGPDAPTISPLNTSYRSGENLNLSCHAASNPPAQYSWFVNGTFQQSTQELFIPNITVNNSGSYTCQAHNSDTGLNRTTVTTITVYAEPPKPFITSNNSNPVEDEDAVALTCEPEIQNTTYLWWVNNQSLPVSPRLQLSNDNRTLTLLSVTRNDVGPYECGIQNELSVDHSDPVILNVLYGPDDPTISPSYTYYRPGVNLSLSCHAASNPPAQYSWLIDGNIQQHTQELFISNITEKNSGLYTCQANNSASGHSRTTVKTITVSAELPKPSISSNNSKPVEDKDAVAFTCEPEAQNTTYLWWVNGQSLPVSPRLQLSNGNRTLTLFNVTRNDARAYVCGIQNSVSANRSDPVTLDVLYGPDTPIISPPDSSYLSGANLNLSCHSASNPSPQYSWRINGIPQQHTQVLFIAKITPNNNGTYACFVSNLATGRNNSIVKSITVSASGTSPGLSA

CEACAM5 = target: T2, CEACAM5 (Homo sapiens, UniProt P06731); test: cell staining of CEACAM5-expressing cell line using FITC-labeled CEA-V2122; type: cell-based
T2 construct: endogenous in cells; host or cells: MKN-45 (CEACAM5-positive); DLD1 (CEACAM5-negative control)
T2 sequence (P06731 35-676): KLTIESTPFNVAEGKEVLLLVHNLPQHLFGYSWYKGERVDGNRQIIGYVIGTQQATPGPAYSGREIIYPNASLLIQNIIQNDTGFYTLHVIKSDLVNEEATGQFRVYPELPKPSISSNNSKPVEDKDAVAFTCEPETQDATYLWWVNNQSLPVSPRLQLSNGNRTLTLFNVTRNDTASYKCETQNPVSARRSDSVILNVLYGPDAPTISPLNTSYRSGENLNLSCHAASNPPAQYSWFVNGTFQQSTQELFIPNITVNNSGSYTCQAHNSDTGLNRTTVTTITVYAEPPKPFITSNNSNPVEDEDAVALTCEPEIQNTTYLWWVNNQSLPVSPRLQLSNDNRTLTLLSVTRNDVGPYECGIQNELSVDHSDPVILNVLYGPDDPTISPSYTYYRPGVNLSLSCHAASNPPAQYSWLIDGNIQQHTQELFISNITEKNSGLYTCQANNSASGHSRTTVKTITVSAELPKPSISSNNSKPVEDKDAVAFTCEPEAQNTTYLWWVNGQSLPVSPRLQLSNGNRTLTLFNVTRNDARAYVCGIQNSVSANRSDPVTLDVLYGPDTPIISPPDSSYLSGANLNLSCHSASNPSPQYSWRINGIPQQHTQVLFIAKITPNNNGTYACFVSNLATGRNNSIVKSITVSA
Method: In order to stain a CEACAM5 expression-positive cancer cell line, FITC labeling was carried out on the cell line, using 100 μg of a purified CEA-V2122 protein. Specifically, labeling was carried out using Fluorescein Labeling Kit—NH2 (DOJINDO LABORATORIES) in accordance with the protocol and amount described in the operating manual included with the kit, and the obtained product was defined to be CEA-V2122-FITC. Specific staining of the CEACAM5 expression-positive cancer cell line is as follows. That is, CEACAM5-positive human stomach cancer-derived MKN-45 cells and CEACAM5-negative human colon cancer-derived DLD1 cells were each seeded on a CELLSTAR, μClear, 96-well plate (Greiner) to a cell density of 2.0×10^4 cells/well, and thereafter, the cells were cultured overnight. Subsequently, a culture solution containing 20 nM CEA-V2122-FITC and 1 μM Hoechist was added to the 96-well plate to a concentration of 100 μL/well, and the obtained mixture was then reacted at 4° C. for 30 minutes. Thereafter, each image was taken using In Cell Analyzer 6000 (GE Healthcare Life Sciences).

[2] = target: T3, Recombinant Human CEACAM-5/CD66e Protein (Homo sapiens, UniProt P06731); test: SPR (Biacore T200) affinity of CEA-V2122 for antigen CEACAM5; type: binding
T3 construct: purchased R & D SYSTEMS
T3 sequence (P06731 35-676): T2 sequence (P06731 35-676)

[3] = single-cycle kinetics, bivalent analysis mode

B1: CEA-V2122 (scFv)
chain: QVKLEQSGAEVVKPGASVKLSCKASGFNIKDSYMHWLRQGPGQRLEWIGWIDPENGDTEYAPKFQGKATFTTDTSANTAYLGLSSLRPEDTAVYYCNEGTPTGPYYFDYWGQGTLVTVSSGGGGSGGGGSGGGGSENVLTQSPSSMSVSVGDRVNIACSASSSVPYMHWLQQKPGKSPKLLIYLTSNLASGVPSRFSGSGSGTDYSLTISSVQPEDAATYYCQQRSSYPLTFGGGTKLEIKGGGGSGGGGAEAGITGTWSDQLGDTFIVTAGADGALTGTYENAVGGAESRYVLTGRYDSAPATDGSGTALGWTVAWKNNSKNAHSATTWSGQYVGGADAKINTQWLLTSGTTNANAWKSTLVGHDTFTKVKPSAASHHHHHH
notes: Fusion of an anti-CEACAM5 scFv and mutant streptavidin V2122; also called CEA-Cupid; scFv-V2122
[1]
  Kd: 1.08 pM

B2: CEA-V2122-FITC: purified CEA-V2122 protein labeled with Fluorescein Labeling Kit—NH2 (conjugate)
chain: B1 chain
CEACAM5; 20 nM, 4° C. 30 minutes, CEACAM5-positive MKN-45 vs CEACAM5-negative DLD1 cells
  recognition of CEACAM5 on cells (FIG. 7): specifically recognizes CEACAM5 on the surface of the cell membrane
CEACAM5; time-series images of MKN45 cells
  localisation of CEACAM5 after binding (FIG. 8): the CEACAM5 stays on the surface of the cell membrane

B3: CEA-V2122: scFv-type anti-CEACAM5 antibody bound with mutant streptavidin V2122 via an amino acid linker, SEQ ID NO: 14 (protein)
chain: B1 chain
[2]; bivalent analysis
  KD=kd1/ka1: 1.078E−12
[2]; from the KD value in the sensorgram
  binding to CEACAM5 (FIG. 5): strongly binds to CEACAM5
[2]; [3]
  ka1: 3.208E+5
  kd1: 3.461E−7
